Measurements taken from patent publication WO2006003999A1 (dated 2006).
One block for each binder: values may come before it.

Legend:
human B7RP-1-Fc [1] = biological target: T1, human B7RP-1-Fc (human, UniProt O75144 19-256, limits assumed); test: SPR (BIAcore), B7RP-1-Fc immobilised on CM5 or captured by anti-human Fc F(ab')2, scFv injected at 100 nM
T1 construct: not shown: Fc part
T1 sequence (looked up): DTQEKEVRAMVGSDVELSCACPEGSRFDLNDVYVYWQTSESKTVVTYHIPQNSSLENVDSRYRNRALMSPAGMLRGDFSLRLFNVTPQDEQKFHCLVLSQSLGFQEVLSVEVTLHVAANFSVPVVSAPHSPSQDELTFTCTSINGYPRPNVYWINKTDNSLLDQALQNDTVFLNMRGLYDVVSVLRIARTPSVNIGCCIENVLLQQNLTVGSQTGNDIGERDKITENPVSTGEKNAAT

human B7RP-1-Fc [2] = biological target: T1, human B7RP-1-Fc; test: SPR (BIAcore), ICOS-Fc immobilised on CM5, B7RP-1-Fc injected

- Kd (human B7RP-1-Fc [1]): 13 to 15 nM
B1: human anti-human B7RP-1 single-chain Fv antibody clone 223 (scFv, part only; not given: linker and E tag, not shown: small tags and cut ends)
scFv, part: EVQLLQSGADVKKPGASVKVSCTASGYTFTAYYLNWVRQAPGQGLEWMGWLNPTSGDTYYAQKFQGRVTMTRDTSINTAYMELSSLKSDDTAVYYCARDIRSIEVPFDLWGQGTLVTVSSGIVLTQSPGTLSLSPGERVALSCRASQSVTSSFVAWYQQKPGQTPRLLVYGASSRVPGIPDRFSGNGSGTDFTLTITRLEPEDFAIYYCQYYGDSPYTFGQGTKVDIKR

- Kd (human B7RP-1-Fc [2]): ~7 nM
B2: ICOS-Fc (Fc fusion, human, UniProt Q9Y6W8 21-140, looked up)
chain: EINGSANYEMFIFHNGGVQILCKYPDIVQQFKMQLLKGGQILCDLTKTKGSGNTVSIKSLKFCHSQLSNNSVSFFLYNLDHSHANYYFCNLSIFDPPPFKVTLTGGYLHIYESQLCCQLK
notes: also called ICOS (Inducible costimulator) Fc fusion; biotin-labeled ICOS-Fc; not shown: Fc part
